Literature values as cited in publication PMC6959264.

Tests used:
Asp74 = Asp74 (UniProt position 74, WARYIDWVITT); conditions: original (unphotolyzed, dark) state implied
Asp212 = Asp212 (UniProt position 225, LFMVLDVSAKV)
Asp85 = Asp85 (UniProt position 98, WARYADWLFTT)
Asp96 = Asp96 (UniProt position 109, PLLLLDLALLV)

Substance | pKa (Asp74) | pKa (Asp212) | pKa (Asp85) | pKa (Asp96)
Rubrobacter xylanophilus rhodopsin (RxR) (Rubrobacter xylanophilus (DSM 9941)) | 1.3 | – | – | –
Bacteriorhodopsin (BR) (Halobacterium salinarum) | – | <2.5 | 2.6 | >12.0
